According to patent publication US20040053329A1 (published 2004):

Biological target: T1, endoglin (CD105) of human endothelial cells (HUVEC and other endothelial cells) (human, UniProt P17813 26-658)
T1 construct: whole, on cells; In the immunoprecipitation the protein came from a non-denaturing lysate of 35S-methionine-labelled HUVEC; In immunofluorescence and flow cytometry it was on cells; also called endoglin-expressing HUVEC; endoglin-expressing endothelial cells
T1 sequence (looked up): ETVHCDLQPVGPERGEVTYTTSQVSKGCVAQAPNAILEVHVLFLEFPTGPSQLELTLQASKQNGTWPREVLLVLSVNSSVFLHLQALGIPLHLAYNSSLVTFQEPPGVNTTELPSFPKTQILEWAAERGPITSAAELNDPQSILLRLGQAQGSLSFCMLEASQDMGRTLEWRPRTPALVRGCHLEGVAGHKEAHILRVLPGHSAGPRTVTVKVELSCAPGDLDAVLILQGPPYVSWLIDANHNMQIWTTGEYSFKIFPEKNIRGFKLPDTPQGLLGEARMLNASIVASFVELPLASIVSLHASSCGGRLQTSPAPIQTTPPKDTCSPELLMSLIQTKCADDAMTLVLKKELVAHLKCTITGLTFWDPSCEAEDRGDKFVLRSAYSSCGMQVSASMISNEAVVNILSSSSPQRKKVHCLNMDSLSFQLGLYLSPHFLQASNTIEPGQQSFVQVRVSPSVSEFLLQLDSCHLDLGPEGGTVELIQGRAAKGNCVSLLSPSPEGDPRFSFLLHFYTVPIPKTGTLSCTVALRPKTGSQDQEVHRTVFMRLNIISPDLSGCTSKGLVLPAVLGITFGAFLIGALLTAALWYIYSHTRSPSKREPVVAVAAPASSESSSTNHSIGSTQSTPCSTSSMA
Experiment: immunoprecipitation from non-denaturing lysate of 35S-methionine-labelled HUVEC
Description: Endoglin from primary human umbilical cord endothelial cells (HUVEC) was detected by means of immunoprecipitation under non-denaturing conditions. For this purpose, the [³⁵S]-methionine-labelled endothelial cells were lysed with lysing buffer (10 mM Tris-HCl pH 7.5, 150 mM NaCl, 1% sodium deoxycholate, 1% Nonidet P40) for 30 min at 4° C. […] The complexes were washed several times with lysing buffer and finally resuspended in 20 μL SDS-PAGE charge buffer. After separation in the SDS-polyacrylamide gel, the gel was immobilised for 30 min in 30% methanol and 10% acetic acid and subsequently mixed with amplification solution (Amersham-Buchler). The gel was dried and exposed with an x-ray film.

B1: scFv C4 (anti-endoglin polypeptide C4 in the form of an scFv fragment) (scFv, not shown: small tags and cut ends)
scFv: AQVQLVQSGAEVKKPGATVKISCKVSGYTFTDYYMHWVQQAPGKGLEWMGLVDPEDGETIYAEKFQGRVTITADTSTDTAYMELSSLRSEDTAVYYCARRTTHGPDPHWGQGTLVTVSSGGGGSGGGGSGGSALDIQLTQSPSSLSASVGDRVTITCRASQSISSYLNWYQRKPGKAPKLLIYAASSLQSGVPSRFSGSGSGTDFTLTISSLQPEDFATYYCQQSYSTRTFGQGTKLEIKR
notes: also called polypeptide scFv C4; anti-endoglin-antibody
- binding result: binds
